Measurements published in publication PMC4769559 (BMC Veterinary Research, 2016).

B1: 6 × His-SUMO-VHH6 fusion protein (VHH)
VHH: QVQLVESGGGSVQAGGSLRLSCTASGFTFDDSDMVWYRQAPGNECEVVSYITSDGTTYHADSVKGRFTISQDNAKSTVYLQMNSLKPEDTAVYYCAADLVLESPSCEWSQGTLVTVSS
B2: VHH7 fused to the Gal4 activation domain (pAD-VHH, pGADT7-Rec) (VHH)
VHH: QVQLVESGGGLVQPGGSLRLSCAASGFAFSIYAMSWVRQAPGKGLEWVSAINSGGGSEYYADSVKGRFTISRDNAKNTLYLQLNSLKTEDTAMYYCAKSTSDCSYSDPWCYALADFGYWGQGTQVTVSS
B3: VHH6 fused to the Gal4 activation domain (pAD-VHH, pGADT7-Rec) (VHH)
VHH: QVQLVESGGGSVQAGGSLRLSCTASGFTFDDSDMVWYRQAPGNECEVVSYITSDGTTYHADSVKGRFTISQDNAKSTVYLQMNSLKPEDTAVYYCAADLVLESPSCEWSQGTLVTVSS
B4: VHH5 fused to the Gal4 activation domain (pAD-VHH, pGADT7-Rec) (VHH)
VHH: QVQLVESGGGLVQPGGSLKLSCAASGFTFSTNAMSWFRPAPGKERKWVSAIDAGGGNTYYDDSMKGRFTISKDNAKNTLYLQLNSLKSEDTAMYYCAKDPATVPTNRGQGTLVTVSS
B5: VHH2 fused to the Gal4 activation domain (pAD-VHH, pGADT7-Rec) (VHH)
VHH: QVQLVESGGGSVQAGGSLKLSCAPPAGYIFSSCAMGWYRQAPGKEHELVSSIAINGTTVYADFVKGRFTIFQDNTKPTLYLQMNNLKTEDTAVYYCAAECTFSDHPYWGQGTLVTVSS
B6: VHH1 fused to the Gal4 activation domain (pAD-VHH, pGADT7-Rec) (VHH)
VHH: QVQLVESGGGSVQAGGSLTLSCAASGATDSSSCMGWFRQAPGKEREGVANIDSDGNTNYAESVMGRFTISQDNAKNTLYLQMNTLKPEDTAMYRCAADPGGSWCVFLLARENALDAWGQGTLVTVSS
B7: VHH3 fused to the Gal4 activation domain (pAD-VHH, pGADT7-Rec) (VHH)
VHH: EVQLVESGGGSVQAGGSLRLSCTASGYTRCMGWFRQAPGKEREGVAIVVTGSPYYTDSVKDRFTISLDNAKNTVYLQMNSLKPEDTATYYCAADRSILGCRLFRLYEANYRGQGTLVTVSS
B8: VHH4 fused to the Gal4 activation domain (pAD-VHH, pGADT7-Rec) (VHH)
VHH: QVQLVESGGGSVQAGGPLRLSCAVSGYSYSSVCMAWFRQAPGKEREAVAGIYTGGGNKYYADSVKGRFTISQDNTKNTLYLQMNSLKPEDTAMYYCAADLTVAACVPGRPQLTEEYNIWGQGTLVTVSS

Each binder was assayed against NDV HN glycoprotein in LaSota-infected DF-1 cells (Newcastle disease virus, La Sota, UniProt O90340, strain) (assay: immunostaining of cells or tissue). Details: one partner purified.

**Q.** Does B1 bind?
**A.** binds

These binders were tested against cell derived HN protein (pCAGGS-HN transfected 293 T cells) (Newcastle disease virus, strain not …, UniProt O90340) (assay: pull-down). Details: one partner purified.

**Q.** Does B1 bind?
**A.** binds

These binders were tested against truncate haemagglutinin-neuraminidase (HN) 49–577 aa of NDV La Sota fused to the yeast GAL4 DNA-BD (Newcastle disease virus, La Sota, UniProt O90340, strain) (assay: two-hybrid). Details: partners not purified.

**Q.** Does B2 bind?
**A.** binds

**Q.** Does B3 bind?
**A.** binds

**Q.** Does B4 bind?
**A.** binds

**Q.** Does B5 bind?
**A.** binds

**Q.** Does B6 bind?
**A.** binds

**Q.** Does B7 bind?
**A.** binds

**Q.** Does B8 bind?
**A.** binds
